In the supplement of paper PMC7877785:
± gives the uncertainty stated by the source.

Test: self-splicing fitness, log relative to wild type (ln ratio); higher = more splicing; Tetrahymena group I intron in knt gene, E. coli kanamycin selection, DiMSum; sequences stand for … in CUCUCU…GGAGGGAAAAGUUAUCAGGCAUGCACCUGGUAGCUAGUCUUUAAACCAAUAGAUUGCAUCGGUUUAAAAGGCAAGACCGUCAAAUUGCGGGAAAGGGGUCAACAGCCGUUCAGUACCAAGUCUCAGGGGAAACUUUGAGAUGGCCUUGCAAAGGGUAUGGUAAUAAGCUGACGGACAUGGUCCUAACCACGCAGCCAAGUCCUAAGUCAACAGAUCUUCUGUUGAUAUGGAUGCAGUUCACAGACUAAAUGUCGGUCGGGGAAGAUGUAUUCUUCUCAUAAGAUAUAGUCGGACCUCUCCUUAAUGGGAGCUAGCGGAUGAAGUGAUGCAACACUGGAGCCGCUGGGAACUAAUUUGUAUGCGAAAGUAUAUUGAUUAGUUUUGGAGUACUCGUGGUCG
How it was run: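 DiMSum derived fitness as the error-weighted combination of fold changes across replicates, kanamycin versus no kanamycin, normalised to wild type. E. coli BL21(DE3) held the library, which randomised all eight P1ex-region intron nucleotides within the knt kanamycin-resistance gene on pET-22b(+). Six replicate transformations grew overnight at 37°C or 30°C on LB agar with or without 25 μg/mL kanamycin, also containing 100 μg/mL carbenicillin, 50 μM IPTG and 0.2% rhamnose, and pooled colonies were amplicon-sequenced on an Illumina HiSeq 2500.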

Row | Sequence | self-splicing fitness (ln) (30 °C) | self-splicing fitness (ln) (37 °C)
1 | GCCGAGCAAUAUUACGUUAG | -3.58 ± 0.17 | -2.65 ± 0.19
2 | UGAGAGCAAUAUUACGCGUC | -2.95 ± 0.38 | -1.37 ± 0.41
3 | UCACAGCAAUAUUACGGAGA | -1.48 ± 0.1 | -0.898 ± 0.11
4 | GUAAAGCAAUAUUACGGACU | -0.753 ± 0.061 | -0.471 ± 0.082
5 | GGUUAGCAAUAUUACGUCUU | -0.107 ± 0.093 | 0.227 ± 0.11
6 | UAUCAGCAAUAUUACGAAAG | -1.62 ± 0.12 | -1.21 ± 0.17
7 | CUAAAGCAAUAUUACGGUCA | -2.46 ± 0.18 | -1.22 ± 0.2
8 | UCUUAGCAAUAUUACGUAUA | – | -3.28 ± 0.3
9 | UGGAAGCAAUAUUACGGUUA | -1.04 ± 0.11 | -0.0733 ± 0.099
10 | ACCCAGCAAUAUUACGACAC | -2.41 ± 0.091 | -0.292 ± 0.083
11 | AAAGAGCAAUAUUACGUUUG | -2.74 ± 0.21 | -1.77 ± 0.22
12 | CAAAAGCAAUAUUACGUACC | -2.56 ± 0.15 | -1.33 ± 0.15
13 | CACAAGCAAUAUUACGAGGG | -2.28 ± 0.12 | -2.48 ± 0.14
14 | CGGAAGCAAUAUUACGCAGG | -1.73 ± 0.095 | -1.57 ± 0.11
15 | CGGCAGCAAUAUUACGCUAA | -1.59 ± 0.1 | -2.03 ± 0.15
16 | ACCAAGCAAUAUUACGUCAA | -3.35 ± 0.17 | -3 ± 0.16

Row | Sequence | self-splicing fitness (ln) (30 °C) | self-splicing fitness (ln) (37 °C)
17 | AUCUAGCAAUAUUACGAGUU | -2.66 ± 0.16 | -0.737 ± 0.14
18 | CUACAGCAAUAUUACGAUAG | -2.04 ± 0.12 | -1.16 ± 0.12
19 | CUUAAGCAAUAUUACGUGAU | -2.63 ± 0.092 | -0.627 ± 0.093
20 | UAUGAGCAAUAUUACGUCUG | -0.9 ± 0.13 | -0.416 ± 0.15
21 | CCCAAGCAAUAUUACGGGUU | -2.98 ± 0.12 | -2.9 ± 0.2
22 | UCAGAGCAAUAUUACGACGC | – | -1.69 ± 0.4
23 | UGGCAGCAAUAUUACGCGUC | -3.54 ± 0.37 | -2.21 ± 0.3
24 | AGGGAGCAAUAUUACGUGAG | -3.15 ± 0.26 | -2.56 ± 0.24
25 | UCGUAGCAAUAUUACGCGUA | -1.16 ± 0.14 | -0.895 ± 0.11
26 | CUCGAGCAAUAUUACGAAAU | -3.36 ± 0.42 | -2.38 ± 0.27
27 | GGGUAGCAAUAUUACGUCGU | -0.541 ± 0.086 | 0.73 ± 0.12
28 | ACUGAGCAAUAUUACGGUUG | -2.76 ± 0.14 | -1.73 ± 0.15
29 | AUUCAGCAAUAUUACGGGCC | -2.57 ± 0.33 | -1.82 ± 0.34
30 | AGCUAGCAAUAUUACGUGAC | -3.94 ± 0.18 | -1.26 ± 0.13
31 | ACUCAGCAAUAUUACGUUAU | -2.29 ± 0.073 | -1.27 ± 0.086
